{"source": "patent US20240025965A1", "about": "(UNIVERSITEIT TWENTE, published 2024)", "key": {"rhIntegrin α11β1 [1]": {"molecular_target": "T1, rhIntegrin α11β1 (human, UniProt Q9UKX5 23-1141; P05556 21-728, limits assumed)", "T1 construct": "Bought from R&D Systems; also called α11β1 receptor; ITGA11 receptor", "T1 sequence (Q9UKX5 23-1141 limits assumed, chain 1 of 2)": "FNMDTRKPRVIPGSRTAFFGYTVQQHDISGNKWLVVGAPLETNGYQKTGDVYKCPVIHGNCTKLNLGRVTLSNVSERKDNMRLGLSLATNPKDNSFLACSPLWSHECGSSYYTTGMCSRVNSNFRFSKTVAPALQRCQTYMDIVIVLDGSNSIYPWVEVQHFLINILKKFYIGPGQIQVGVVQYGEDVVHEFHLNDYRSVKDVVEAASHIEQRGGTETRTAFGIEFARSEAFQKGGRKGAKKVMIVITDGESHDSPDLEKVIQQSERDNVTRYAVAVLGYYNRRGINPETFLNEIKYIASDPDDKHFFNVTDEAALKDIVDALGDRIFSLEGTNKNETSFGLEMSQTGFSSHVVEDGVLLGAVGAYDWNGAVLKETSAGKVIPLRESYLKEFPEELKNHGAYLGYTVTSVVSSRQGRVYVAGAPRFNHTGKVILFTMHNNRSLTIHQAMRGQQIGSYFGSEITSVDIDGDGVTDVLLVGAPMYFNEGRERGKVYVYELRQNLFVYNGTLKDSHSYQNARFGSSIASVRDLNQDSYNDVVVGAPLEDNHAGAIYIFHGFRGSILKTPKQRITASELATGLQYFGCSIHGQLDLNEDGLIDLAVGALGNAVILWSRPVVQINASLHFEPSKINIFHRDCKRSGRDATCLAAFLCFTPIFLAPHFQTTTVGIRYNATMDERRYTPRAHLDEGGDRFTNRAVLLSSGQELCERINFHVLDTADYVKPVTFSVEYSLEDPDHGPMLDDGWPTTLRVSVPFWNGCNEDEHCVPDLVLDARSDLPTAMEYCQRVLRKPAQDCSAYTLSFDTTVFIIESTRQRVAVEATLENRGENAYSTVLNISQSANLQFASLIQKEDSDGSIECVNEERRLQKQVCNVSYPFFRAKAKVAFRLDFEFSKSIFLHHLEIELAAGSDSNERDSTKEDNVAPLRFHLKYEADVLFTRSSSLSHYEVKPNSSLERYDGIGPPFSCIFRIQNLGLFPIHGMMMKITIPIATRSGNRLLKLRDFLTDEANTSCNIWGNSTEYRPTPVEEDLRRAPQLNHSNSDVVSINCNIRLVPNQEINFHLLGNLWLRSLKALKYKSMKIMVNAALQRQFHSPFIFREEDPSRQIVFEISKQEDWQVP", "T1 sequence (P05556 21-728 limits assumed, chain 2 of 2)": "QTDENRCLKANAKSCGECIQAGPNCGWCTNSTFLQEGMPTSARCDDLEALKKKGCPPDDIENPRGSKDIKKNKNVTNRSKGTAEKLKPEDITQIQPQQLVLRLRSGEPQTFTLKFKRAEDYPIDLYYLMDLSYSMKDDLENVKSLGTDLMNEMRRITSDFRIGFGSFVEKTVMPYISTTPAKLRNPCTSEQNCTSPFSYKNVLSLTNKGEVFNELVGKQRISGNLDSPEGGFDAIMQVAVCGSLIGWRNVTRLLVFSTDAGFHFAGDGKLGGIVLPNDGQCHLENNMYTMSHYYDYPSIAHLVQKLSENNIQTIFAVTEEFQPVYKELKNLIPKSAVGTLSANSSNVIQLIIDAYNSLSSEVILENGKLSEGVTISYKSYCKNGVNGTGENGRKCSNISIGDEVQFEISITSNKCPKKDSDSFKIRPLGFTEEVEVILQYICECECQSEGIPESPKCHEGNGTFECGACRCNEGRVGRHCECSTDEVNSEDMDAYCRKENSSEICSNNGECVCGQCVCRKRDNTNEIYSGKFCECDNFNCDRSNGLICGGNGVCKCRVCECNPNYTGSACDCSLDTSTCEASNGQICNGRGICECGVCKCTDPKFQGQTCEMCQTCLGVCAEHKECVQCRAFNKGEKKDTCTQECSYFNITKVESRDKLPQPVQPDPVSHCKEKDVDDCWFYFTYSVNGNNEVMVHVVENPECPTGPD", "assay": "phage ELISA on coated rhIntegrin α11β1, HRP-anti-M13 antibody, read at 490 nm; control coatings rhIntegrin α4β1 (Bar 2) and no coating (Bar 3); one phage dose, no concentration given", "experimental": "For each clone, 20 mL of LB medium was inoculated with ER2738 and incubated at 37° C. until slightly turbid. Single plaque of phages were inoculated to each culture and then incubated at 37° C. with vigorous aeration for 4.5 hours. The cultures were transferred to a fresh centrifuge tube and centrifuged for 10 minutes at 10,000 rpm. The upper 80% of the supernatant was transferred to a fresh tube and precipitated with PEG/NaCl twice. Then the pellet was suspended in 250 μL TBS. The 96-well ELISA plate was coated with 100 μL of 1 μg/mL target in coating buffer and incubated at 4° C. overnight. Then, the plate was washed once with the washing buffer (0.1% TWEEN® in TBS). All wells were blocked with 250 μL of blocking buffer at 4° C. for 1-2 hours. Then, the plate was washed 6 times with the washing buffer and slapping on a paper towel to remove excess buffer. Thereafter, 100 μL of phage virions was added per well. In competitive phage ELISA, competitive antigen was mixed with phages in washing buffer and added to the wells and incubated at room temperature for 1-2 hours with agitation. The plate was washed 6 times with washing buffer. HRP-conjugated anti-M13 antibody (GE healthcare, 1:5000 in blocking buffer) was added to each well and incubated at room temperature for 1 hour with agitation. […] The plates were read using a microplate reader at 490 nm."}, "rhIntegrin α11β1 [2]": {"molecular_target": "T1, rhIntegrin α11β1", "assay": "competition: unlabeled AXI-I in 10-fold excess against AXI-I-FITC on coated α11β1 receptor, fluorescence intensity", "experimental": "Purified ITGA11 receptor (α11β1; 100 μg/ml—stock; R&D systems) was diluted to 5 μg/ml with 1×PBS. 96-well ELISA White Maxisorb plate (Nunc) was coated with 50 μl of 5 μg/ml ITGA11 (or as control α5β1) receptor for overnight at 4° C. Then, wells were blocked for 3-4 hours with 200 μl of blocking buffer (1×PBS containing 5% BSA). Wells were washed three times with 200 μl of washing buffer (1×PBS containing 0.5% BSA and 0.05% TWEEN®-20). Peptides conjugated with FITC were diluted to different concentrations in washing buffer and then added to the plate and incubated at 37° C. for 1 hour. In addition, the binding of the peptide was blocked by co-incubation with 10× higher amount of unlabeled peptide. Subsequently, wells were washed three times with washing buffer. Then, 100 μl of 1×PBS was added and plates were read at 485 nm/520 nm with a fluorescence plate reader."}, "[3]": {"molecular_target": "T2, α5β1 human recombinant protein (human, UniProt P08648 42-995; P05556 21-728)", "T2 construct": "Bought from R&D Systems; also called α5β1 receptor; integrin α5β1", "T2 sequence (P08648 42-995 limits assumed, chain 1 of 2)": "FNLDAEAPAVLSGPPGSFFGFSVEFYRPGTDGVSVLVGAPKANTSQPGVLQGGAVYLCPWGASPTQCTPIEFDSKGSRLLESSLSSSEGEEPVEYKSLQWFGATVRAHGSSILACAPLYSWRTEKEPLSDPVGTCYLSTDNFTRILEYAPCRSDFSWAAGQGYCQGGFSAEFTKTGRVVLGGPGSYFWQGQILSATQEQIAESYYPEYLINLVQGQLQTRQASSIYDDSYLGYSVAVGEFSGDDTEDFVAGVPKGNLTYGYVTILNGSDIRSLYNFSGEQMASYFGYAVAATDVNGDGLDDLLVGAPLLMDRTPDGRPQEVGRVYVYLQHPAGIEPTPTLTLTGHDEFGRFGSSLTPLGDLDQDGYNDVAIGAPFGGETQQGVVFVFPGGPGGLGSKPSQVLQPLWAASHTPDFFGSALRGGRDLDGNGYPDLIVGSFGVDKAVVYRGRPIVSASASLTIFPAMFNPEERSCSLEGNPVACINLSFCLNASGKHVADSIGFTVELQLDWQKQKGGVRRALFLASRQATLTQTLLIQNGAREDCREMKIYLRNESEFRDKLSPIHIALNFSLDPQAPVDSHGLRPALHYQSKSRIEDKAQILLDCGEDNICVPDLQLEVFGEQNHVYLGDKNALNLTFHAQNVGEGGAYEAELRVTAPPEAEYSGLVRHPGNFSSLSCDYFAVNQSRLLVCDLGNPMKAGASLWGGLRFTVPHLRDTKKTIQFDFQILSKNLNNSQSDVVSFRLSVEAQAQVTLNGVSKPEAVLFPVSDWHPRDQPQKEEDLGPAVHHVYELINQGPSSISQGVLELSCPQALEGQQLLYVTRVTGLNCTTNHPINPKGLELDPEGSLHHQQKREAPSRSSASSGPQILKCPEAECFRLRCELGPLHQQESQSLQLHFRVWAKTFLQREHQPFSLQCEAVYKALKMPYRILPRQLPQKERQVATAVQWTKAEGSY", "T2 sequence (P05556 21-728 limits assumed, chain 2 of 2)": "as the sequence (P05556 21-728 limits assumed, chain 2 of 2) above", "assay": "FITC-labelled peptide on coated α5β1 receptor in a 96-well plate, fluorescence intensity (counts)", "experimental": "(§1) The purified human recombinant α5β1 or α11β1 receptors (5 μg/ml in PBS) were coated onto 96-well ELISA plates (White Maxisorb-Nunc) by incubating overnight at 4° C. Then, the wells were blocked with blocking buffer (5% (w/v) BSA, 150 mM Nacl, 25 mM Tris) for 2 hours at room temperature. Then, the wells were washed three times with 200 μl of washing buffer (150 mM Nacl, 25 mM Tris-base, 0.005% TWEEN® 20, 0.5% BSA). Thereafter, the peptides conjugated with PEG(6)-FITC were diluted to different concentrations in washing buffer. For the competitive studies, the wells were co-incubated with 10-fold higher amount of unlabeled peptides. The plates were incubated at 37° C. for 60 minutes. Then, the wells were washed three times with washing buffer and subsequently, the plates were read for the fluorescein signal Ex/Em 485 nm/520 nm using a fluorescent plate reader (Perkin Elmer).\n(§2) Blocking of the peptide with 10-fold excess of unlabeled peptide blocked the binding of nAV2-PEG(6)-fluorescein. In addition, a new short peptide (RYYRITY (SEQ ID NO:8), called AV3) was also designed because seq. 3 and seq. 4 (see the sequences above) had “YYRITY” (SEQ ID NO:10) as common amino acids and the N-terminal of the seq. 4 was crucial for the binding to the receptor. […] Therefore, AV3 was selected to move with further studies."}, "[4]": {"molecular_target": "T2, α5β1 human recombinant protein", "assay": "competition: unlabelled AV3 in excess against nAV2-FITC on coated α5β1 receptor, fluorescence intensity (counts)", "experimental": "as §1, §2"}, "[5]": {"molecular_target": "T3, human recombinant receptor αvβ3 (human, UniProt P06756 31-992; P05106 27-718, limits assumed)", "T3 construct": "also called irrelevant receptor of the integrin family", "T3 sequence (P06756 31-992 limits assumed, chain 1 of 2)": "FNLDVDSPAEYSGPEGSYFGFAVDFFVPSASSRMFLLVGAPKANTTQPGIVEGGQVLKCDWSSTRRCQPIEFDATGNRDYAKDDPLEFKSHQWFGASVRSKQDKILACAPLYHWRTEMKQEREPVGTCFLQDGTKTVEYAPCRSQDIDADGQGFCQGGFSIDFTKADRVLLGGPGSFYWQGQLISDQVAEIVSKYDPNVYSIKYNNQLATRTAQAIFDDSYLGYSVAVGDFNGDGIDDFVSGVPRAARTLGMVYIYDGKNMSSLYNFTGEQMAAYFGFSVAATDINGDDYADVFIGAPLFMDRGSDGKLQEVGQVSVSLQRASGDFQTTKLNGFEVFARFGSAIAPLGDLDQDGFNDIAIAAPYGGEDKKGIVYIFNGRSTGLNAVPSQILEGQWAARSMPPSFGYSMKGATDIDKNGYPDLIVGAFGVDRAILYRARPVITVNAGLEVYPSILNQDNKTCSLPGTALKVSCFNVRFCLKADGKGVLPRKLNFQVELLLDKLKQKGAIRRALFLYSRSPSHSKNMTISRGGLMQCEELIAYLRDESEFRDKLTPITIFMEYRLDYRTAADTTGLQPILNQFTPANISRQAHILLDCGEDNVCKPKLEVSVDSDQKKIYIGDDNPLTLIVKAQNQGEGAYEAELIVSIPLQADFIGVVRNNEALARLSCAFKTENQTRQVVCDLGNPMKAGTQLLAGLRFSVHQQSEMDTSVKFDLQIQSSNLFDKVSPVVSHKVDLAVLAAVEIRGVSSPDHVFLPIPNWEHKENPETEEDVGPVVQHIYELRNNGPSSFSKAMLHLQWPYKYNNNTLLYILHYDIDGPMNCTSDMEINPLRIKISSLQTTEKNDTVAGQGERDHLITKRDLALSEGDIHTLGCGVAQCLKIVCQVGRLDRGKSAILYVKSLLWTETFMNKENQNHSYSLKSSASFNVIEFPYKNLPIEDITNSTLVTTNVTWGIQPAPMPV", "T3 sequence (P05106 27-718 limits assumed, chain 2 of 2)": "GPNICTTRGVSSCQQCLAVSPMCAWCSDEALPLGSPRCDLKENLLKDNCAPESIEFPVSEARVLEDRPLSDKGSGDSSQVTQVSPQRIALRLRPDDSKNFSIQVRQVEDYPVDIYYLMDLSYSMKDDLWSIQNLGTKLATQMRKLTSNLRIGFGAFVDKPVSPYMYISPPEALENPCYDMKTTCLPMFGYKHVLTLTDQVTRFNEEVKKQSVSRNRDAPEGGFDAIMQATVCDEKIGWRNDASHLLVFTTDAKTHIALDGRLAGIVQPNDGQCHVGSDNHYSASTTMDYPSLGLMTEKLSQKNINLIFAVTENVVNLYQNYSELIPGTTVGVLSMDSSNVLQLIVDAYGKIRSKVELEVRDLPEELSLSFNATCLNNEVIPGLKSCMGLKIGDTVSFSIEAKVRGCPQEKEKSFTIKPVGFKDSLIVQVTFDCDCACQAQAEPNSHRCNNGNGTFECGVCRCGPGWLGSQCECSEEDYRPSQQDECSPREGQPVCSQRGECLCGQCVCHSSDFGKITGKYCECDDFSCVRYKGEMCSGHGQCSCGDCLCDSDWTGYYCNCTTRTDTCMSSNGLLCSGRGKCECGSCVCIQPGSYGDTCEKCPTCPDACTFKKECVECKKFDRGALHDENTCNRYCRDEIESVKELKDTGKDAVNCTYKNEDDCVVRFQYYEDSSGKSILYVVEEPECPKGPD", "assay": "microscale thermophoresis, 1 µM labelled peptide, receptor titrated, in solution", "experimental": "(§3) Fluorescent labeled peptide (AV3-PEG(6)-5FAM or AXI-I-PEG(6)-FITC) (1 μM) was incubated with different concentrations of a human recombinant receptor (i.e., α5β1, α11β1 or αvβ3) for 10 minutes in Eppendorf tubes. The mixture of peptide and receptor was loaded in to NT.115™ hydrophilic glass capillaries. In order to find the best thermophoretic setting, the binding of peptide to the target receptor was examined at low (20%), middle (40%), and high (80%) MST power and all other binding experiments were performed using the same MST-settings. Finally, the dissociation constant (Kd) value was calculated from an average of three experiments.\n(§4) Fluorescent labeled peptides (AV3-PEG(6)-5FAM and AXI-I-PEG(6)-FITC) were examined for their binding affinities against α5β1 and α11β1 receptors, respectively using microscale thermophoresis (MST). MST allows peptides to interact with the receptors in solution phase. These peptides were also exposed to an irrelevant receptor of the integrin family αvβ3 and MST analyses were performed."}, "[6]": {"molecular_target": "T2, α5β1 human recombinant protein", "assay": "microscale thermophoresis, 1 µM labelled peptide, receptor titrated, in solution", "experimental": "as §3, §4"}, "[7]": {"molecular_target": "T2, α5β1 human recombinant protein", "assay": "microscale thermophoresis, 1 µM labelled peptide with rising concentrations of the receptor in solution", "experimental": "as §3, §4"}}, "note": "Primed or numbered codes have the meaning given here. Where no end group is shown, it is not given here. Side-chain parts run from the residue outwards. PEG(6) = PEG(6) linker"}
{"binder": "SGLTEWLRWFNS (Whole phage virions in the phage ELISA; not shown: phage coat protein of the Ph.D.12 library)", "note": "[Phage clones 11, 13, 14, 16, 19, 20, 21, 22, 24, 25, 28, 29, 30, 31 and 38 displaying AXI-I]", "values": [{"measurement": "binding result", "setting": "rhIntegrin α11β1 [1]", "value": "binds"}]}
{"binder": "SGLTEWLRWFNS (Unlabelled peptide; On the peptide microarray it is linked by its N-terminus to a glass slide through a PEG linker; also called unlabeled AXI-I)", "note": "[AXI-I peptide SGLTEWLRWFNS]", "values": [{"measurement": "binding result", "setting": "rhIntegrin α11β1 [2]", "value": "binds"}]}
{"binder": "SFATWTPNFERN (Whole phage virions in the phage ELISA; not shown: phage coat protein of the Ph.D.12 library)", "note": "[Phage clone 27 displaying AXI-II]", "values": [{"measurement": "binding result", "setting": "rhIntegrin α11β1 [1]", "value": "binds"}]}
{"binder": "YYRITYGETGGNK([PEG(6)-fluorescein]) (also called nAV2-FITC; nAV2-PEG(6)-fluorescein)", "note": "[FITC-labeled nAV2: YYRITYGETGGN-K-PEG(6)-Fluorescein]", "values": [{"measurement": "binding result", "setting": "[3]", "value": "binds"}]}
{"binder": "RYYRITY (Unlabelled; On the peptide microarray it is linked by its N-terminus to a glass slide through a PEG linker)", "note": "[AV3 peptide RYYRITY]", "values": [{"measurement": "binding result", "setting": "[4]", "value": "binds"}]}
{"binder": "RYYRITY (also: PEG(6)-5FAM conjugated, site not given here, also called AV3 peptide (fluorescent labeled))", "note": "[AV3-PEG(6)-5FAM]", "values": [{"measurement": "Kd", "setting": "[5]", "value": 36.1, "unit": "µM"}, {"measurement": "Kd", "setting": "[6]", "value": 97.8, "unit": "nM"}, {"measurement": "EC50 (read off the curve)", "setting": "[7]", "value": "~100", "unit": "nM"}]}
